Biological target: T1, R295D/R296D mutant of full-length UHRF1 (human, UniProt Q96T88 1-793, R295D | R296D)
T1 construct: human UHRF1 (1–793)
T1 sequence (looked up): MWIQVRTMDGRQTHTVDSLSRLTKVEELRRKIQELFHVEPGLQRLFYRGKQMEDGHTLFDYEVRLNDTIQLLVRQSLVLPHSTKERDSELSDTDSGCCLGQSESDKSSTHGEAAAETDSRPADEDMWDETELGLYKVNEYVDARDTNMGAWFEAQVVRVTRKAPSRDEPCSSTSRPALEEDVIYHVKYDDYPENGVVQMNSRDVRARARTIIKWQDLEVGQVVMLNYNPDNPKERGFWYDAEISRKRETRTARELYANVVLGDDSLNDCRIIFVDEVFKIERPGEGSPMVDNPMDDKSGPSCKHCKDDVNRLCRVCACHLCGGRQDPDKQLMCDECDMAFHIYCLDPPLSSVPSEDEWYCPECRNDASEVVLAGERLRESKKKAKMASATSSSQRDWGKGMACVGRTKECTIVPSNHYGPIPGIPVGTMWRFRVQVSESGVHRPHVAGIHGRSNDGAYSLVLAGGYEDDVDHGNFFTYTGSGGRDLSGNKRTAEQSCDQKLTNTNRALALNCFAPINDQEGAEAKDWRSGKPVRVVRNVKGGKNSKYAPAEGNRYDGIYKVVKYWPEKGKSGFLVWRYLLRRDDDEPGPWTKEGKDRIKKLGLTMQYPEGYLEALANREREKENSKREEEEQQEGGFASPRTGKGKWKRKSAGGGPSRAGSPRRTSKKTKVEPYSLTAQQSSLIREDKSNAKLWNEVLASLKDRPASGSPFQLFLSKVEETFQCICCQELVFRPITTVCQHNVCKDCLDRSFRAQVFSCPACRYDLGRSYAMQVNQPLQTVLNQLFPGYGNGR
Assay: ITC; 0.05 mM protein in the cell, 0.5 mM protein or peptide in the syringe, iTC200, 18 °C, 10 mM HEPES pH 8.0, 100 mM NaCl
Conditions: both partners purified

fold lower binding affinity than wild type: 8 fold
Binder: ARTKQTARKSTGGKAPR (peptide, UniProt P68431 2-18, looked up, trimethyl-lysine at K9, histone H3, residues 1–17) [H3K9me3 peptide (1–17)]
